In publication doi:10.1101/2022.06.09.495453:

Molecular target: SHLD2^1-95 (human)
Assay: SEC-MALS

Sequence of REV7 of the SHLD3-SHLD2^1-95-REV7 ternary complex (Shieldin) (Q9UI95 whole entry, one chain of several): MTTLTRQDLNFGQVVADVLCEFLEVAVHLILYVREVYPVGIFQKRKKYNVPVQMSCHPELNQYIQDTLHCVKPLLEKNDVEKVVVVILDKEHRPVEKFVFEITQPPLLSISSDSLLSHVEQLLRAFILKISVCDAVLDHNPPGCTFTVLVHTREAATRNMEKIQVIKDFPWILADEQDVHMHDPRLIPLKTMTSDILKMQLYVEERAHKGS

**Q.** “REV7 of the SHLD3-SHLD2^1-95-REV7 ternary complex (Shieldin) (from UniProt Q9UI95 1-211) (natural protein)” was tested. Which stoichiometry N (REV7 per SHLD2^1-95) did it give?
**A.** The stoichiometry N (REV7 per SHLD2^1-95) was 2.
